Test results reported in paper PMC6695400, “Diversity of oligomerization in Drosophila semaphorins suggests a mechanism of functional fine-tuning” (Nature Communications, 2019).

What was measured:
[1] = biological target: T1, Drosophila melanogaster full-length secreted semaphorin-2a (Sema2a_(full)) (Drosophila melanogaster, UniProt Q24323 26-724); experiment: MST; plexin-mVenus kept constant, unlabelled semaphorin titrated (1:1 dilution series); 25 °C; 15 mM HEPES pH 7.4, 150 mM NaCl, 2 mM CaCl2, 0.005% Tween-20; 1 h incubation at room temperature; apparent Kd; conditions: both partners purified
T1 construct: Semaphorin-2a, Drosophila melanogaster, residues 26D-724V; Disulfide-linked dimer in solution; source: HEK293T (37 °C), transient transfection, purified (HisTrap, SEC)
T1 sequence (looked up): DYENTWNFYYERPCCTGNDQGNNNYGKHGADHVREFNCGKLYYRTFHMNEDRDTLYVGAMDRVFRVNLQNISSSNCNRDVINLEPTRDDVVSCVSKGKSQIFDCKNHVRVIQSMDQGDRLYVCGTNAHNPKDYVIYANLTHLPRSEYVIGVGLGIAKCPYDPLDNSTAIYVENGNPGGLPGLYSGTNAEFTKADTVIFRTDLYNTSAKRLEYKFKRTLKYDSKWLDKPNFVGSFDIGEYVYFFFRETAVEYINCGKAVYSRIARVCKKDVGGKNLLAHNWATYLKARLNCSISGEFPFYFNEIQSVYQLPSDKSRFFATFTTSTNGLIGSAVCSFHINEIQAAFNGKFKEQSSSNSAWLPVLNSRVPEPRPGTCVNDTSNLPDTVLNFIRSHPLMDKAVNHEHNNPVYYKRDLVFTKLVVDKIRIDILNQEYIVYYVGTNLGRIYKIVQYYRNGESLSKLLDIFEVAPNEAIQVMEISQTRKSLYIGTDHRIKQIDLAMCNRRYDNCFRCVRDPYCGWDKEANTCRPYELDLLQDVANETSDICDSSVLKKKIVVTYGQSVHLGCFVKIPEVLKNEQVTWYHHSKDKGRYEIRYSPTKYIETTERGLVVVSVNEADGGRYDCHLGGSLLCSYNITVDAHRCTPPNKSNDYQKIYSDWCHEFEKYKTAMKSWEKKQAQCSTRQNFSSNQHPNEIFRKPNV

[2] = biological target: T2, mouse Sema3A (residues 26–730, furin sites mutated) with C-terminal 3C-Avi-His6 tag (mouse, UniProt O08665 26-730, R551A (printed: R551, 555A) | R555A (printed: R551, 555A)); experiment: pull-down; HEK293T co-transfected with a His6-tagged and a TwinStrep-tagged semaphorin; conditioned medium 5 days post transfection; two-step affinity chromatography (HisTrap, then StrepTactin); western blot and SDS-PAGE of flow-through and eluate; conditions: partners not purified
T2 construct: Semaphorin-3A, mouse, residues 26-730, furin cleavage sites mutated (R551, 555A); also called Sema3A-His6; source: HEK293T, transient co-transfection, secreted into conditioned medium; not shown: His6, C-terminal, kept
T2 sequence (looked up): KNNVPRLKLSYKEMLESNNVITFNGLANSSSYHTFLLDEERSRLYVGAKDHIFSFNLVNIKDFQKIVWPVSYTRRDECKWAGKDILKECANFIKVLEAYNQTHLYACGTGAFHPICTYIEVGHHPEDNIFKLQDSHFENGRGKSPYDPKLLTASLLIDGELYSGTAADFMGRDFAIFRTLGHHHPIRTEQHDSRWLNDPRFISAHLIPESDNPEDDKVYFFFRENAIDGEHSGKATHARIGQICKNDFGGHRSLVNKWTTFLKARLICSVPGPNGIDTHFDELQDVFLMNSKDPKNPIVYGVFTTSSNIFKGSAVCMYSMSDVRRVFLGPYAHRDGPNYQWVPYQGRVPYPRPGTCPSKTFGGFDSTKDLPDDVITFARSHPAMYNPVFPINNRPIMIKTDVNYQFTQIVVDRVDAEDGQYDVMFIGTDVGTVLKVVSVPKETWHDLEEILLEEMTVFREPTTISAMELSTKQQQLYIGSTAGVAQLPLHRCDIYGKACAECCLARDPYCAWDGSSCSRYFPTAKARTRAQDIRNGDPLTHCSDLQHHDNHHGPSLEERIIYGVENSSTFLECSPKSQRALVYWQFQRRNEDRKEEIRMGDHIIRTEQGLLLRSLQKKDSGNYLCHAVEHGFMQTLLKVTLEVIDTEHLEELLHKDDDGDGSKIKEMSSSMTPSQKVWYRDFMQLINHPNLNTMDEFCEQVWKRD

[3] = biological target: the molecule itself; experiment: crystal structure; sitting-drop vapour diffusion at 20 °C; data at 100 K

B1: Drosophila melanogaster PlexB1–4-mVenus (receptor, UniProt Q9V4A7 35-730, looked up)
chain: EELPAQALSPLNDIVAQFNLPSIPVQSTASSYGNRSIGNNIESVRDSQSKNYFTHMSFDFMHNVLFAGATNKILKLNENLRVLAEAVTGPLHDSPQCHAGGCPEDIETSLVNNFNKILVVSYAHDGILIACGSIRQGACEIYSLPRFPATPQFFAVPLAANDENASTYAFVGPARYAWKEEDILYVGTTFTNVGDYRHDVPAISSRRLDDLNYAEFSIQQSIINIDVKYRDHFLVDYIYGFNSSEYAYFIIVQKKSHLADEAGYVTRLARICITDPNYDSYTEITVQCTATENNVDYNIVRDAKVTPASHKLAQKMGIKKDDHVLVTVFSPSREISNQPESKSAMCIYSIKDIEDMFIENIHLCFNGTTKDRNLGYISGTINDGRCPIVGSLGNIYNFCSVGLKISGVSPITAHALFHFDNVSVTSVTATSTTDQQHSLAFLGTNMGVIKKVLLSGQSPGEYEEIVVDAGNRILPNTMMSPKKDFLYVLSQRKITKLRIEHCSVYTNCSACLESRDPFCGWCSLEKRCTVRSTCQRDTSASRWLSLGSGQQCIEFESIIPEKIPISELSHLHLIIRTLPEPFNAKYRCVFGNSTPIDAEILENGLGCATPPLDERPLIPTNTDHILVPLSVRSSETNKDFVSRNFAFFDCSHHGNCQECLQSSWGCNWCIFDNKCVHKSLQCRNIENAVSTVGHCP
notes: Plexin B, Drosophila melanogaster, domains 1-4 of the ectodomain, residues 35E-730P; source: High Five cells (Trichoplusia ni), baculovirus (pBacPAK9, GP64 signal peptide), purified (HisTrap, SEC); not shown: mVenus, C-terminal, kept
B1 gave a Kd [1] of 25 nM.

B2: mouse Sema3C (residues 22–711, furin sites mutated) with C-terminal TwinStrep tag (ligand, UniProt Q62181 22-711, looked up)
chain: SSQPQARVYLTFDELRETKTSEYFSLSHQQLDYRILLMDEDQDRIYVGSKDHILSLNINNISQEPLSVFWPASTIKVEECKMAGKDPTHGCGNFVRVIQTFNRTHLYVCGSGAFSPVCTYLNRGRRSEDQVFMIDSKCESGKGRCSFNPNVNTVSVMINEELFSGMYIDFMGTDAAIFRSLTKRNAVRTDQHNSKWLSEPMFVDAHVIPDGTDPNDAKVYFFFKERLTDNNRSTKQIHSMIARICPNDTGGQRSLVNKWTTFLKARLVCSVTDEDGPETHFDELEDVFLLETDNPRTTLVYGIFTTSSSVFKGSAVCVYHLSDIQTVFNGPFAHKEGPNHQLISYQGRIPYPRPGTCPGGAFTPNMRTTKDFPDDVVTFIRNHPLMYNSIYPIHRRPLIVRIGTDYKYTKIAVDRVNAADGRYHVLFLGTDRGTVQKVVVLPTNSSASGELILEELEVFKNHVPITTMKISSKKQQLYVSSNEGVSQVSLHRCHIYGTACADCCLARDPYCAWDGHSCSRFYPTGKARSRAQDVRHGNPLTQCRGFNLKAYRNAAEIVQYGVRNNSTFLECAPKSPQASIKWLLQKDKDRRKEVKLNERIIATSQGLLIRSVQDSDQGLYHCIATENSFKQTIAKINFKVLDSEMVAVVTDKWSPWTWAGSVRALPFHPKDILGAFSHSEMQLINQYCKD
notes: Semaphorin-3C, mouse, residues 22-711, furin cleavage sites mutated (R548, 552A); also called Sema3C-TwinStrep; source: HEK293T, transient co-transfection, secreted into conditioned medium; not shown: TwinStrep, C-terminal, kept
In the case of B2, the “stoichiometry N” value [2] is reported as 1.

B3: Drosophila melanogaster Sema2a1–3 (sema, PSI and Ig-like domains) (domain or fragment, UniProt Q24323 27-671, looked up)
chain: YENTWNFYYERPCCTGNDQGNNNYGKHGADHVREFNCGKLYYRTFHMNEDRDTLYVGAMDRVFRVNLQNISSSNCNRDVINLEPTRDDVVSCVSKGKSQIFDCKNHVRVIQSMDQGDRLYVCGTNAHNPKDYVIYANLTHLPRSEYVIGVGLGIAKCPYDPLDNSTAIYVENGNPGGLPGLYSGTNAEFTKADTVIFRTDLYNTSAKRLEYKFKRTLKYDSKWLDKPNFVGSFDIGEYVYFFFRETAVEYINCGKAVYSRIARVCKKDVGGKNLLAHNWATYLKARLNCSISGEFPFYFNEIQSVYQLPSDKSRFFATFTTSTNGLIGSAVCSFHINEIQAAFNGKFKEQSSSNSAWLPVLNSRVPEPRPGTCVNDTSNLPDTVLNFIRSHPLMDKAVNHEHNNPVYYKRDLVFTKLVVDKIRIDILNQEYIVYYVGTNLGRIYKIVQYYRNGESLSKLLDIFEVAPNEAIQVMEISQTRKSLYIGTDHRIKQIDLAMCNRRYDNCFRCVRDPYCGWDKEANTCRPYELDLLQDVANETSDICDSSVLKKKIVVTYGQSVHLGCFVKIPEVLKNEQVTWYHHSKDKGRYEIRYSPTKYIETTERGLVVVSVNEADGGRYDCHLGGSLLCSYNITVDAHRCTPPNK
notes: Semaphorin-2a, Drosophila melanogaster, sema-PSI-Ig, residues 27Y-671K; Disulfide-linked dimer in the crystal; source: HEK293S-GnTI- or HEK293T with kifunensine, transient transfection, purified (HisTrap, SEC)
B3: binds [3].
